Test results taken from IntAct's records for PubMed 7561682.

B1: Focal adhesion kinase 1 (Homo sapiens), Q05397 (parent)
chain: MAAAYLDPNLNHTPNSSTKTHLGTGMERSPGAMERVLKVFHYFESNSEPTTWASIIRHGDATDVRGIIQKIVDSHKVKHVACYGFRLSHLRSEEVHWLHVDMGVSSVREKYELAHPPEEWKYELRIRYLPKGFLNQFTEDKPTLNFFYQQVKSDYMLEIADQVDQEIALKLGCLEIRRSYWEMRGNALEKKSNYEVLEKDVGLKRFFPKSLLDSVKAKTLRKLIQQTFRQFANLNREESILKFFEILSPVYRFDKECFKCALGSSWIISVELAIGPEEGISYLTDKGCNPTHLADFTQVQTIQYSNSEDKDRKGMLQLKIAGAPEPLTVTAPSLTIAENMADLIDGYCRLVNGTSQSFIIRPQKEGERALPSIPKLANSEKQGMRTHAVSVSETDDYAEIIDEEDTYTMPSTRDYEIQRERIELGRCIGEGQFGDVHQGIYMSPENPALAVAIKTCKNCTSDSVREKFLQEALTMRQFDHPHIVKLIGVITENPVWIIMELCTLGELRSFLQVRKYSLDLASLILYAYQLSTALAYLESKRFVHRDIAARNVLVSSNDCVKLGDFGLSRYMEDSTYYKASKGKLPIKWMAPESINFRRFTSASDVWMFGVCMWEILMHGVKPFQGVKNNDVIGRIENGERLPMPPNCPPTLYSLMTKCWAYDPSRRPRFTELKAQLSTILEEEKAQQEERMRMESRRQATVSWDSGGSDEAPPKPSRPGYPSPRSSEGFYPSPQHMVQTNHYQVSGYPGSHGITAMAGSIYPGQASLLDQTDSWNHRPQEIAMWQPNVEDSTVLDLRGIGQVLPTHLMEERLIRQQQEMEEDQRWLEKEERFLKPDVRLSRGSIDREDGSLQGPIGNQHIYQPVGKPDPAAPPKKPPRPGAPGHLGSLASLSSPADSYNEGVKLQPQEISPPPTANLDRSNDKVYENVTGLVKAVIEMSSKIQPAPPEEYVPMVKEVGLALRTLLATVDETIPLLPASTHREIEMAQKLLNSDLGELINKMKLAQQYVMTSLQQEYKKQMLTAAHALAVDAKNLLDVIDQARLKMLGQTRPH

Variants of: B1
Conditions: with paxi_human PXN

effect of a mutation on the interaction | Variant
decreasing interaction | R1042G
decreasing interaction | D1039A
decreasing interaction | V1037D

Second part, the variant before the results:

Variant | effect of a mutation on the interaction
V935A | decreasing interaction
V928G | decreasing interaction
L1035A | decreasing interaction
L1034S | decreasing interaction
L931R | decreasing interaction
